B1: CEBP24 (C/EBP24) (dsDNA)
DNA 1: AGTGGAGATTGCGCAATCTCGTGC
DNA 2: GCACGAGATTGCGCAATCTCCACT
B2: CRE24 (dsDNA)
DNA 1: AGTGGAGATGACGTCATCTCGTGC
DNA 2: GCACGAGATGACGTCATCTCCACT

Key:
G56 (GCN4 bZIP element) [1] = biological target: T1, G56 (GCN4 bZIP element) (UniProt P03069 P03069:226-281); assay: EMSA; ddG -2.6 kcal/mol; details: chain copies: 2 inferred; label: 32P
G56 (GCN4 bZIP element) [2] = biological target: T1, G56 (GCN4 bZIP element); assay: EMSA; details: chain copies: 2 inferred; label: 32P

T1 sequence (P03069 226-281, one chain of several): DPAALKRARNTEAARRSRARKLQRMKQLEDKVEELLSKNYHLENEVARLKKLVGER

Binder | binding signal (G56 (GCN4 bZIP element) [1]) | binding signal (G56 (GCN4 bZIP element) [2])
B1 | 118 fold specificity ratio for CRE24 over CEBP24 | 
B2 |  | 118 fold preference over CEBP24
